Measured values as given in patent US20040002450A1, “Y17 - isolated molecules comprising epitopes containing sulfated moieties, antibodies to such epitopes, and uses thereof” (priority 2000, published 2004).

What was measured:
MOLT-4 cells = test: T-ALL (MOLT4) model in SCID mice; type: in vivo
Protocol: The in vivo mouse model for T-ALL uses SCID mice (Jackson Laboratories) injected with MOLT4 cells derived from a T cell leukemia patient.
In one experiment, SCID mice were pretreated with 100 mg/kg Cytoxan (CTX, Cyclophosphamid for injection, Mead Johnson). Eleven days after CTX injection, MOLT-4 cells were injected intravenously into the tail vein. Control mice were injected with PBS alone. One week post-MOLT-4 injection mice were injected with CONY1-Doxorubicin, which is a conjugate between scFv CON Y1 polypeptide, having KAK amino acid residues at its carboxy end and doxorubicin via a short organic linker; CONY1, which is a scFv antibody fragment derived from Y1 scFv in which the DNA sequences encoding the myc tag of Y1 were deleted and replaced with a DNA sequence encoding the amino acids lysine, alanine, lysine (KAK); or free Doxorubicin. The mice were injected three times per week for three weeks. […] (Table M).
Mice started to die 32 days post cell inoculation, and the surviving mice were sacrificed at this time. Bone marrow cells were analyzed by flow cytometry using anti-human CD44-FITC and Y1-Biotin/SAV-PE. Blood samples from several animals were monitored for platelet and white blood cell count. Livers were weighted and examined for appearance. Other organs were also examined for tumor appearance.
In a second experiment, SCID mice were i.v. injected with 2×10^7 MOLT-4 cells/mouse, 5 days post treatment with cyclophosphamide. Anti-cancer agents or PBS (negative control animals) were injected i.v. three times/week from day 5 post MOLT-4 cells injection and onward. On day 35, blood was drawn from the animals, the animals were sacrificed, and their livers were excised and weighed. In the untreated, PBS-treated MOLT-4 cell-bearing animals, the liver presented with a very massive tumor growth, and its size was increased 2-3-fold relative to PBS control uninfected animals. In this experiment, there were five treatment groups:
In parallel, portions of liver tissue were taken for histology and cell harvesting for FACS analysis. The survival rate of another group of treated animals was recorded relative to that of control untreated mice.
In a third experiment, using the identical SCID/MOLT-4 protocol, there were 6 groups: […]

KG-1 cells [1] = test: AML KG-1 model in SCID/NOD mice; type: in vivo
Protocol: The in vivo mouse model for human AML uses SCID/NOD mice (Jackson Laboratories) inoculated with KG-1 cells derived from a human AML cell line.
In a first experiment, NOD/SCID mice were pretreated with 100 mg/kg CYTOXAN®. Four days post CYTOXANT injection, KG-1 cells were injected intravenously into the tail vein of six groups of mice. (Table N, Groups 2 and 5-9). One group of mice (Table N, Group 1) was injected with PBS alone (control).
Beginning 19 days post KG-1 injection mice were treated with: CONY1, Doxorubicin, CONY1-Doxorubicin conjugate, or Mylotarg®. (Mylotarg® is a monoclonal antibody (anti CD33) conjugated chemically to calcheamicin recently approved by the FDA for treatment of AML patients age 60 and over in a first relapse.) Mice were treated once or three times per week for three weeks. […]
Mice were sacrificed from 60 to 65 days post cell injection. Bone marrow and blood samples were analyzed by flow cytometry using mouse anti human CD34-FITC (IQP 144F) (or anti CD44-FITC (MCA89F, Serotec)) and Y1-Biotin/SAV-PE. […]
An additional experiment was performed in which SCID-NOD mice were i.v. injected with 3×10^4 MOLT-4 cells/mouse 5 days post treatment with cyclophosphamide. […] Bone marrow was extracted and analyzed by FACS analysis using a commercially available antiCD44 antibody for the detection of MOLT-4 cells in the mice bone marrow cell population.

[2] = target: T1, GPIb (glycocalicin) derived from platelets (Homo sapiens, UniProt P07359); test: ELISA to GC (glycocalicin), monomer versus dimer; type: binding
T1 construct: glycocalicin (soluble, extracellular fragment of GPIbα); from tissue; host or cells: human platelets
Protocol: An ELISA assay was performed to ascertain the differences in binding between the monomer (the Y1 scFv-also known as Y1-kak) and the dimer Y1-cys-kak (the cysteine dimer) for antigen GPIb (glycocalicin) derived from platelets. A polyclonal anti single chain antibody and/or a novel polyclonal anti-VL (derived from rabbits) and anti-rabbit HRP, were used to detect the binding to GPIb. […] For instance, to reach 0.8 OD units 12.8 μg/ml of monomer was used compared to only 0.1 μg/ml of dimer.
100 ml of purified glycocalicin was incubated in a 96 flat well maxisorp plates, overnight at 4 degrees celsius. The plate was washed with PBST (PBS+0.05% tween) 3 times, then […] of PBST-milk (PBST+2% Non fat milk), for 1 hr at room temperature. The plate was washed with PBST, and the monomer or dimer (100 ml) was added in PBST-milk at different concentrations for 1 hr at room temp. Then the plate was washed and anti-VL polyclonal (derived from immunized rabbits with VL derived from Y1) (1:100 diluted in PBST-milk) was added for an hour. The plate was washed and anti-rabbit HRP was added for an additional hour. The plate was washed 5 times and 100 μl TMB substrate was added for approximately 15 minutes then 100 μl of 0.5H2SO4 was added to stop the reaction. The optical density of the plate was measured at 450 nm in an ELISA reader.

[3] = mouse, in vivo
Protocol: The radioactive protein was then admixed with unlabeled CONY-1 to yield a solution of 75 μg/ml CONY-1 containing 2.5×10^6 CPM/ml in saline.
Male Balb-C mice were pretreated by intraperitoneal injection of 0.5 ml/mouse of 0.9% NaI. After 2 hours, the mice were injected intravenously with 0.2 ml of the labeled CONY-1 solution, resulting in a ^125I-CONY-1 dose of 15 μg (5×10^5 CPM) per mouse.
At various times after injection, blood was collected over EDTA, mice were sacrificed, and tissues were excised. Samples and organs were taken at 5, 15, and 30 minutes and at 1, 2, 4, 8, and 24 hours after injection. Two to four mice were used per time point. Plasma was separated and either counted for gamma radioactivity or subjected to precipitation with trichloroacetic acid (TCA). After centrifugation, TCA precipitates were subjected to gamma radioactivity counting. Liver, lung, kidney, spleen, and bone marrow samples were weighed and counted for gamma radioactivity. Plasma TCA precipitated radioactivity was plotted against time, and a two-compartment kinetics model was fitted. Organ/tissue total and specific radioactivity values were calculated.

KG-1 cells [4] = test: Radioreceptor binding assay with KG-1 cells; parameters: species or system human; conditions: 2 ng/tube 125I-Y1-IgG tracer
Protocol: The assay system involved the use of radioactive ligands that were prepared by iodination with ^125I using chloramine T on the Y1-IgG construct or the Bolton-Hunter (CONY1) reagent. The assay tubes contained 5×10^6 KG-1 cells per 0.2 ml and a labeled tracer with varying amounts of unlabeled competitor, in PBS+0.1% BSA, pH 7.4. After one hour incubation with agitation at 4° C., the cells were thoroughly washed with cold buffer and taken for radioactivity counting.
For the radio receptor binding assay (RRA), 2 ng/tube of ^125I-Y1-IgG was used, and competition was performed with each of the three molecules. […] A rough estimate of the affinity of the Y1-IgG in this experiment is 2×10^−8 M. The corresponding affinity of the dimer is, therefore, 4×10^−8 M.
In a second RRA using labeled CONYL, a 100 ng/tube of ^125I-Y1-IgG was used, and competition was performed with each of the three molecules. […] A rough estimate of the affinity of CONY 1 in this experiment is 10^−6M. The corresponding affinity of the dimer is, therefore, 5×10^−8 M.

Row | Molecule | liver weight versus free Doxorubicin-treated or untreated MOLT-4 mice (MOLT-4 cells; first experiment, three times per week for three weeks, sacrifice 32 days post inoculation) | survival (MOLT-4 cells; mice from three groups with continued treatment) | liver weights / tumor growth in the liver (MOLT-4 cells; second experiment, day 35, i.v. three times/week, scFv or conjugate 75 μg/mouse, Doxorubicin 0.1 mg/kg) | tumor growth (based on liver weights) (MOLT-4 cells; third experiment, scFv 75 μg/mouse, IgG 5 μg/mouse) | percentage of KG-1 cells in bone marrow (in words) (KG-1 cells [1]; KG-1 cells incubated in vitro with scFv before injection (groups 3 and 4)) | development of the malignancy / prevalence of bone marrow cancer (in words) (KG-1 cells [1]; additional experiment, day 60, CONY1 scFv 75 μg/mouse three times/week, Mylotarg 7 μg/mouse once a week) | concentration used to reach 0.8 OD units [2] [µg/mL] | distribution between plasma and erythrocytes (in words) [3] | half-life of blood clearance, first compartment ([3]; iv) [h] | half-life of blood clearance, second compartment ([3]; iv) [h] | affinity relative to the full Y1 antibody (KG-1 cells [4])
1 | CONY1: scFv derived from Y1 scFv in which the myc tag is replaced by lysine, alanine, lysine (KAK); SEQ ID NO: 204 (protein, listed as Homo sapiens) scFv: MKYLLPTAAAGLLLLAAQPAMAEVQLVESGGGVVRPGGSLRLSCAASGFTFDDYGMSWVRQAPGKGLEWVSGINWNGGSTGYADSVKGRFTISRDNAKNSLYLQMNSLRAEDTAVYYCARMRAPVIWGQGTLVTVSRGGGGSGGGGSGGGGSSELTQDPAVSVALGQTVRITCQGDSLRSYYASWYQQKPGQAPVLVIYGKNNRPSGIPDRFSGSSSGNTASLTITGAQAEDEADYYCNSRDSSGNHVVFGGGTKLTVLGAAAKAK | weighted significantly less | prolonged | markedly inhibited tumor growth in the liver | inhibited tumor growth | significantly lower percentage | no effect | 12.8 | did not adhere to erythrocytes | 0.583 | 3.17 | 
2 | S-S Y1 dimer: Y1 sulfide bridge dimer compared with CONY1 and Y1-IgG in the radioreceptor assay (protein) scFv: MEVQLVESGGGVVRPGGSLRLSCAASGFTFDDYGMSWVRQAPGKGLEWVSGINWNGGSTGYADSVKGRFTISRDNAKNSLYLQMNSLRAEDTAVYYCARMRAPVIWGQGTLVTVSRGGGGSGGGGSGGGGSSELTQDPAVSVALGQTVRITCQGDSLRSYYASWYQQKPGQAPVLVIYGKNNRPSGIPDRFSGSSSGNTASLTITGAQAEDEADYYCNSRDSSGNHVVFGGGTKLTVLGGGGCKAK |  |  |  |  |  |  |  |  |  |  | twofold lower
